Laboratory results from US20190352376A1 (NATIONAL RESEARCH COUNCIL OF CANADA, published 2019).
Changes are numbered by the printed parent chain.

B1: F211-10A9 (antibody, V domains shown)
VH: QIQLQQSGPELVKPGAPVKISCKASGYTFTDYYIHWVNQRPGQGLEWIGYIYPGNGHTVYNQKFKVRATLTADNPSSTAYLQLNSLTSEDSGVYFCAYDLFNYWGQGTLVTVSA
VL: DIVMTQSPSSLAMSVGQKVTMSCKSSQSLLNSDTQKNFLAWYQQKPGQSPKILVYFASTKESGVPDRFIGSGSGTDFTLTITSVQAEDLADYFCQQYYSIPLTFGAGTKLELK
B2: F211-11H12 (antibody, V domains shown)
VH: DVQLQESGPGLVKPSQSLSLTCSVTGYSITSDYYWNWIRQFPGNKLEWMAYIGYDGTKNYNPSLKNRISITRDTSKNQFFLKLNSVTTDDTATYYCTRDRANWDDYFDYWGQGTTLTVSS
VL: DIVMSQSPSSLAVSVGEKVTMSCKSSQSLLNSRNQKNHLAWYQQKPGQSPKLLIYWASTRESGVPDRFTGDGSGTDFTLTISSVKAEDLAVYYCQQYYTYRTFGGGTKLEIK
B3: F211-9D1 (antibody, V domains shown)
VH: B2 VH with T57S
VL: B2 VL with T69S

Experiments:
[1] = biological target: T1, hemagglutinin of H1N1 A/Puerto Rico/8/1934 (influenza virus H1N1 A/Puerto …, UniProt P03452 18-528); assay: dot blot, 4M urea; virus (HEK293/NRC), dot 17
[2] = biological target: T2, hemagglutinin of H1N1 A/California/06/2008 (influenza virus H1N1 …); assay: dot blot, 4M urea; rHA (Imm. Techn.), dot 2
[3] = biological target: hemagglutinin of H3N2 A/Texas/50/2012 (influenza virus H3N2 A/Texas/50/2012); assay: dot blot, 4M urea; inactivated virus (egg/NIBSC), dot 13
[4] = biological target: T3, hemagglutinin of H3N2 A/Brisbane/10/2007 (influenza virus H3N2 A/Brisbane/10/2007); assay: dot blot, 4M urea; rHA (BEI Res.), dot 6
T3 construct: rHA (BEI Resources)

[5] = biological target: T4, hemagglutinin of H3N2 A/Hong Kong/8/1968 (influenza virus H3N2 A/Hong Kong/8/1968); assay: dot blot, 4M urea; virus (HEK293/NRC), dot 19
[6] = biological target: T1, hemagglutinin of H1N1 A/Puerto …; assay: dot blot, 4M urea; rHA (Prot. Sc.), dot 1
[7] = biological target: hemagglutinin of B/Brisbane/60/2008 (influenza virus B/Brisbane/60/2008); assay: dot blot, 4M urea; rHA (Prot. Sc.), dot 11
[8] = biological target: T2, hemagglutinin of H1N1 …; assay: dot blot, 4M urea; inactivated virus (egg/NIBSC), dot 12
[9] = biological target: hemagglutinin of B/Massachusetts/2/2012 (influenza virus B/Massachusetts/2/2012); assay: dot blot, 4M urea; inactivated virus (egg/NIBSC), dot 14
[10] = biological target: hemagglutinin of H12N5 A/Duck/Alberta/60/76 (influenza virus H12N5 …, UniProt P03446 17-564); assay: Western blot; virus, MDCK cells
[11] = biological target: hemagglutinin of H3N2 A/Wisconsin/67/2005 (influenza virus H3N2 A/Wisconsin/67/2005); assay: dot blot, 4M urea; rHA (Prot. Sc.), dot 4
[12] = biological target: T4, hemagglutinin of H3N2 A/Hong Kong/8/1968; assay: dot blot, 4M urea; rHA (Imm. Techn.), dot 5
[13] = biological target: hemagglutinin of H9N2 A/Turkey/Wisconsin/1/66 (influenza virus H9N2 …, UniProt P03457 19-560); assay: Western blot; virus, eggs
[14] = biological target: hemagglutinin of H4N6 A/Duck/Czechoslovakia/56 (influenza virus H4N6 …, UniProt P19696 17-564); assay: Western blot; virus, eggs
[15] = biological target: hemagglutinin of H2N2 A/Singapore/1/57 (influenza virus H2N2 A/Singapore/1/57, UniProt Q67333 16-562); assay: Western blot; virus, eggs
[16] = biological target: hemagglutinin of H7N3/A/Turkey/Oregon/71 (influenza virus H7N3 A/Turkey/Oregon/71, UniProt P03458 19-560); assay: Western blot; virus, eggs
[17] = biological target: hemagglutinin of H8N4 A/Turkey/Ontario/6118/68 (influenza virus H8N4 …, UniProt P03456 16-565); assay: Western blot; virus, eggs
[18] = biological target: hemagglutinin of H13N6 A/Gull/Maryland/704/77 (influenza virus H13N6 …, UniProt P13103 19-566); assay: Western blot; virus, eggs

Binder | signal intensity [1] | signal intensity [2] | signal intensity [3] | signal intensity [4] | signal intensity [5] | signal intensity [6] | signal intensity [7] | signal intensity [8] | signal intensity [9] | binding result [10] | signal intensity [11] | signal intensity [12] | binding result [13] | binding result [14] | binding result [15] | binding result [16] | binding result [17] | binding result [18]
B1 | 7450 arbitrary fluorescent units | 2780 arbitrary fluorescent units | 412 arbitrary fluorescent units | 11500 arbitrary fluorescent units | 319 arbitrary fluorescent units | 2520 arbitrary fluorescent units | 25800 arbitrary fluorescent units | 227 arbitrary fluorescent units | 240 arbitrary fluorescent units | binds | 791 arbitrary fluorescent units | 5670 arbitrary fluorescent units | binds | binds | binds | binds | binds | binds
B2 | 6540 arbitrary fluorescent units | 5120 arbitrary fluorescent units | 201 arbitrary fluorescent units | 280 arbitrary fluorescent units | 201 arbitrary fluorescent units | 20300 arbitrary fluorescent units | 38500 arbitrary fluorescent units | 14400 arbitrary fluorescent units | 9930 arbitrary fluorescent units | – | 176 arbitrary fluorescent units | 464 arbitrary fluorescent units | – | no binding (tested: 2µg/ml) | – | no binding (tested: 2µg/ml) | – | –
B3 | 7810 arbitrary fluorescent units | 5780 arbitrary fluorescent units | 238 arbitrary fluorescent units | 362 arbitrary fluorescent units | 108 arbitrary fluorescent units | 21400 arbitrary fluorescent units | 41100 arbitrary fluorescent units | 17400 arbitrary fluorescent units | 10500 arbitrary fluorescent units | – | 70 arbitrary fluorescent units | 651 arbitrary fluorescent units | – | – | – | – | – | –
